Laboratory results published in paper PMC10656227.
Values belong to the substance of their own block, whether it stands above or below them.

Columns and labels:
[1] = target: collagen IV NC1 domains of the NC1 hexamer from market squid lens capsules (market squid (Doryteuthis opalescens)); experiment: SDS-PAGE (SDS resistance of the native hexamer); partially purified NC1 hexamer (SEC hexamer fraction); SDS-PAGE with 150 mM NaCl; sample at room temperature; Western blot with JK2 or TCE in-gel visualization
[2] = target: collagen IV NC1 domains of the NC1 hexamer from quick gloss snail (quick gloss snail (Zonitoides arboreus)); experiment: SDS-PAGE (SDS resistance of the native hexamer); partially purified NC1 hexamer (SEC hexamer fraction); regular SDS-PAGE without Cl^− supplement; sample at room temperature; Western blot with JK2 or TCE in-gel visualization
[3] = target: collagen IV NC1 domains of the NC1 hexamer from quick gloss snail (quick gloss snail (Zonitoides arboreus)); experiment: SDS-PAGE (SDS resistance of the native hexamer); partially purified NC1 hexamer (SEC hexamer fraction); SDS-PAGE with 150 mM NaCl; sample at room temperature; Western blot with JK2 or TCE in-gel visualization
[4] = target: collagen IV NC1 domains of the NC1 hexamer from leeches (leech (Hirudo medicinalis)); experiment: SDS-PAGE (SDS resistance of the native hexamer); straight collagenase digest of tissue or animals; regular SDS-PAGE without Cl^− supplement; sample at room temperature; Western blot with JK2
[5] = target: collagen IV NC1 domains of the NC1 hexamer from leeches (leech (Hirudo medicinalis)); experiment: SDS-PAGE (SDS resistance of the native hexamer); straight collagenase digest of tissue or animals; SDS-PAGE with 150 mM NaCl; sample at room temperature; Western blot with JK2
[6] = target: collagen IV NC1 domains of the NC1 hexamer from snapping turtle muscle (snapping turtle (Chelydra serpentina)); experiment: as above
[7] = target: collagen IV NC1 domains of the NC1 hexamer from placenta basement membrane (bovine); experiment: SDS-PAGE (SDS resistance of the native hexamer); purified NC1 hexamer; Tris-glycine SDS-PAGE with 150 mM NaCl in running buffer and sample buffer; sample at room temperature, not boiled; Coomassie, TCE or Western blot
[8] = target: collagen IV NC1 domains of the NC1 hexamer from sea squirt (sea squirt (Ciona intestinalis)); experiment: SDS-PAGE (SDS resistance of the native hexamer); collagenase digest, soluble fraction; Bis-Tris gel, Mops running buffer with 150 mM NaCl, sample buffer with 400 mM NaCl; sample at room temperature; Western blot with JK2
[9] = target: collagen IV NC1 domains of the NC1 hexamer from sea clam (sea clam (Spisula solidissima)); experiment: SDS-PAGE (SDS resistance of the native hexamer); straight collagenase digest of tissue or animals; regular SDS-PAGE without Cl^− supplement; sample at room temperature; Western blot with JK2
[10] = target: collagen IV NC1 domains of the NC1 hexamer from sea clam (sea clam (Spisula solidissima)); experiment: SDS-PAGE (SDS resistance of the native hexamer); straight collagenase digest of tissue or animals; SDS-PAGE with 150 mM NaCl; sample at room temperature; Western blot with JK2
[11] = target: collagen IV NC1 domains of the α121 NC1 hexamer from lens capsule basement membrane (bovine); experiment: SDS-PAGE (SDS resistance of the native hexamer); purified NC1 hexamer; Tris-glycine SDS-PAGE with 150 mM NaCl in running buffer and sample buffer; sample at room temperature, not boiled; Coomassie, TCE or Western blot
[12] = target: collagen IV NC1 domains of the NC1 hexamer from rooster liver, kidney and chorioallantoic membrane (rooster (Gallus gallus domesticus)); experiment: as above
[13] = target: collagen IV NC1 domains of the NC1 hexamer from axolotl kidney (axolotl (Ambystoma mexicanum)); experiment: SDS-PAGE (SDS resistance of the native hexamer); straight collagenase digest of tissue or animals; SDS-PAGE with 150 mM NaCl; sample at room temperature; Western blot with JK2
[14] = target: collagen IV NC1 domains of the NC1 hexamer from green iguana heart and kidney (green iguana (Iguana iguana)); experiment: SDS-PAGE (SDS resistance of the native hexamer); straight collagenase digest of tissue or animals; regular SDS-PAGE without Cl^− supplement; sample at room temperature; Western blot with JK2
[15] = target: collagen IV NC1 domains of the NC1 hexamer from green iguana heart and kidney (green iguana (Iguana iguana)); experiment: SDS-PAGE (SDS resistance of the native hexamer); straight collagenase digest of tissue or animals; SDS-PAGE with 150 mM NaCl; sample at room temperature; Western blot with JK2
[16] = target: collagen IV NC1 domains of the NC1 hexamer from African clawed frog kidney (African clawed frog (Xenopus laevis)); experiment: as above
[17] = target: collagen IV NC1 domains of the NC1 hexamer from human kidney (human (Homo sapiens)); experiment: SDS-PAGE (SDS resistance of the native hexamer); purified NC1 hexamer; Tris-glycine SDS-PAGE with 150 mM NaCl in running buffer and sample buffer; sample at room temperature, not boiled; Coomassie, TCE or Western blot
[18] = target: collagen IV NC1 domains of the NC1 hexamer from banded killifish organs (banded killifish (Fundulus heteroclitus)); experiment: SDS-PAGE (SDS resistance of the native hexamer); straight collagenase digest of tissue or animals; regular SDS-PAGE without Cl^− supplement; sample at room temperature; Western blot with JK2
[19] = target: collagen IV NC1 domains of the NC1 hexamer from banded killifish organs (banded killifish (Fundulus heteroclitus)); experiment: SDS-PAGE (SDS resistance of the native hexamer); straight collagenase digest of tissue or animals; SDS-PAGE with 150 mM NaCl; sample at room temperature; Western blot with JK2
[20] = target: collagen IV NC1 domains of the NC1 hexamer from caiman liver (caiman (Caiman crocodilus)); experiment: as above
[21] = target: collagen IV NC1 domains of the NC1 hexamer from zebrafish material (zebrafish (Danio rerio)); experiment: SDS-PAGE (SDS resistance of the native hexamer); partially purified NC1 hexamer (SEC hexamer fraction); regular SDS-PAGE without Cl^− supplement; sample at room temperature; Western blot with JK2 or TCE in-gel visualization
[22] = target: collagen IV NC1 domains of the NC1 hexamer from zebrafish material (zebrafish (Danio rerio)); experiment: SDS-PAGE (SDS resistance of the native hexamer); partially purified NC1 hexamer (SEC hexamer fraction); SDS-PAGE with 150 mM NaCl; sample at room temperature; Western blot with JK2 or TCE in-gel visualization
[23] = target: collagen IV NC1 domains of the NC1 hexamer from starfish gonads (starfish (Asterias rubens)); experiment: SDS-PAGE (SDS resistance of the native hexamer); straight collagenase digest of tissue or animals; SDS-PAGE with 150 mM NaCl; sample at room temperature; Western blot with JK2
[24] = target: collagen IV NC1 domains of the NC1 hexamer from California blackworms (California blackworm (Lumbriculus variegatus)); experiment: SDS-PAGE (SDS resistance of the native hexamer); straight collagenase digest of tissue or animals; regular SDS-PAGE without Cl^− supplement; sample at room temperature; Western blot with JK2
[25] = target: collagen IV NC1 domains of the NC1 hexamer from California blackworms (California blackworm (Lumbriculus variegatus)); experiment: SDS-PAGE (SDS resistance of the native hexamer); straight collagenase digest of tissue or animals; SDS-PAGE with 150 mM NaCl; sample at room temperature; Western blot with JK2
[26] = target: collagen IV NC1 domains of the NC1 hexamer from dogfish lens capsule, kidney and intestine (dogfish (Squalus acanthias)); experiment: SDS-PAGE (SDS resistance of the native hexamer); purified NC1 hexamer; regular SDS-PAGE without Cl^− supplement; sample at room temperature, not boiled; Coomassie, TCE or Western blot
[27] = target: collagen IV NC1 domains of the NC1 hexamer from dogfish lens capsule, kidney and intestine (dogfish (Squalus acanthias)); experiment: SDS-PAGE (SDS resistance of the native hexamer); purified NC1 hexamer; Tris-glycine SDS-PAGE with 150 mM NaCl in running buffer and sample buffer; sample at room temperature, not boiled; Coomassie, TCE or Western blot
[28] = target: collagen IV NC1 domains of the NC1 hexamer from mussel (mussel (Mytilus edulis)); experiment: SDS-PAGE (SDS resistance of the native hexamer); straight collagenase digest of tissue or animals; regular SDS-PAGE without Cl^− supplement; sample at room temperature; Western blot with JK2
[29] = target: collagen IV NC1 domains of the NC1 hexamer from mussel (mussel (Mytilus edulis)); experiment: SDS-PAGE (SDS resistance of the native hexamer); straight collagenase digest of tissue or animals; SDS-PAGE with 150 mM NaCl; sample at room temperature; Western blot with JK2
[30] = target: collagen IV NC1 domains of the NC1 hexamer from bovine kidney (cow (Bos taurus)); experiment: SDS-PAGE (SDS resistance of the native hexamer); purified NC1 hexamer; Tris-glycine SDS-PAGE with 150 mM NaCl in running buffer and sample buffer; sample at room temperature, not boiled; Coomassie, TCE or Western blot

Substance: collagen IV NC1 domains of the NC1 hexamer from sea clam (domain or fragment)
- stoichiometry N [9]: 6
- stoichiometry N [10]: 6

Substance: collagen IV NC1 domains of the NC1 hexamer from rooster liver, kidney and chorioallantoic membrane (domain or fragment)
- stoichiometry N [12]: 6

Substance: collagen IV NC1 domains of the NC1 hexamer from African clawed frog kidney (domain or fragment)
- stoichiometry N [16]: 6

Substance: collagen IV NC1 domains of the NC1 hexamer from human kidney (domain or fragment)
- stoichiometry N [17]: 6

Substance: collagen IV NC1 domains of the NC1 hexamer from banded killifish organs (domain or fragment)
- stoichiometry N [18]: 6
- stoichiometry N [19]: 6

Substance: collagen IV NC1 domains of the NC1 hexamer from zebrafish material (domain or fragment)
- stoichiometry N [21]: 6
- stoichiometry N [22]: 6

Substance: collagen IV NC1 domains of the NC1 hexamer from starfish gonads (domain or fragment)
- stoichiometry N [23]: 6

Substance: collagen IV NC1 domains of the NC1 hexamer from dogfish lens capsule, kidney and intestine (domain or fragment)
- stoichiometry N [26]: 6
- stoichiometry N [27]: 6

Substance: collagen IV NC1 domains of the NC1 hexamer from bovine kidney (domain or fragment)
- stoichiometry N [30]: 6

Results, then the substance that gave them:

- stoichiometry N [1]: 6
Substance: collagen IV NC1 domains of the NC1 hexamer from market squid lens capsules (domain or fragment)

- stoichiometry N [2]: 6
- stoichiometry N [3]: 6
Substance: collagen IV NC1 domains of the NC1 hexamer from quick gloss snail (domain or fragment)

- stoichiometry N [4]: 6
- stoichiometry N [5]: 6
Substance: collagen IV NC1 domains of the NC1 hexamer from leeches (domain or fragment)

- stoichiometry N [6]: 6
Substance: collagen IV NC1 domains of the NC1 hexamer from snapping turtle muscle (domain or fragment)

- stoichiometry N [7]: 6
Substance: collagen IV NC1 domains of the NC1 hexamer from placenta basement membrane (domain or fragment)

- stoichiometry N [8]: 6
Substance: collagen IV NC1 domains of the NC1 hexamer from sea squirt (domain or fragment)

- stoichiometry N [11]: 6
Substance: collagen IV NC1 domains of the α121 NC1 hexamer from lens capsule basement membrane (domain or fragment)

- stoichiometry N [13]: 6
Substance: collagen IV NC1 domains of the NC1 hexamer from axolotl kidney (domain or fragment)

- stoichiometry N [14]: 6
- stoichiometry N [15]: 6
Substance: collagen IV NC1 domains of the NC1 hexamer from green iguana heart and kidney (domain or fragment)

- stoichiometry N [20]: 6
Substance: collagen IV NC1 domains of the NC1 hexamer from caiman liver (domain or fragment)

- stoichiometry N [24]: 6
- stoichiometry N [25]: 6
Substance: collagen IV NC1 domains of the NC1 hexamer from California blackworms (domain or fragment)

- stoichiometry N [28]: 6
- stoichiometry N [29]: 6
Substance: collagen IV NC1 domains of the NC1 hexamer from mussel (domain or fragment)
